Experimental data taken from patent US20060134087A1, “ITI-D1 Kunitz domain mutants as hNE inhibitors” (Dyax Corp., published 2006).

Assays:
[1] = target: T1, Human Neutrophil Elastase (human, UniProt P08246); test: display phage on hNE beads, pH elution
Protocol: (§1) To test if ITI-D1E7-display phage bind hNE beads, pH elution profiles were measured. Aliquots of EpiNE-7, MA-ITI-D1, and MA-ITI-D1E7 display phage were incubated with hNE beads for three hours at room temperature (RT). The beads were washed and phage were eluted as described in U.S. Pat. No. 5,223,409, except that only three pH elutions were performed.

[2] = target: T1, Human Neutrophil Elastase; test: abbreviated fractionation of display phage on hNE beads
Protocol: as §1

[3] = target: T1, Human Neutrophil Elastase; test: display phage eluted from hNE beads, normalized to MA-EpiNE7 in a concurrent elution
[4] = target: T1, Human Neutrophil Elastase; test: enzyme inhibition assay
Protocol: (§2) Inhibition constants for the proteins reacting with hNE (Kᵢ) were determined using RT measurements of hydrolysis of a fluorogenic substrate (N-methoxysuccinyl-Ala-Ala-Pro-Val-7-amino-4-methylcoumarin, Sigma M-9771) by hNE. […] The reactions were incubated at RT for 30 minutes. At the end of the incubation period, the fluorogenic substrate was added at a concentration of 25 μM and the time course for increase in fluorescence at 470 nm (excitation at 380 nm) due to enzymatic substrate cleavage was recorded using a spectrofluorimeter (Perkin-Elmer 650-15) and strip chart recorder. […] Kᵢ is related to Kₐₚₚₐᵣₑₙₜ by Kᵢ=Kₐₚₚₐᵣₑₙₜ×(1/(1+(S₀/Kₘ))). The correction is small compared to the possible errors in Kₐₚₚₐᵣₑₙₜ. Rates of enzymatic substrate cleavage were determined from the linear slopes of the recorded increases in fluorescence.
(§3) We recorded data used to determine Kᵢ for EPI-HNE-2 and EPI-HNE-3 reacting with hNE. Data obtained as described above are recorded as percent residual activity plotted as a function of added inhibitor. […] From the data, Kᵢ values for EPI-HNE-2 and for EPI-HNE-3 reacting with hNE at RT were calculated to be 4.8 pM and 6.2 pM, respectively.

[5] = target: T1, Human Neutrophil Elastase; test: calculated by the filing from koff = KD × kon
Description: […] […] B. Specificity.

[6] = target: Human Pancreatic Chymotrypsin (human, UniProt P17538); test: enzyme inhibition assay; said to be probably not specific
[7] = target: T1, Human Neutrophil Elastase; test: progressive inhibition of hNE substrate hydrolysis after addition of inhibitor
Protocol: The kinetic on-rates for the inhibitors reacting with hNE (kₒₙ) were determined from measurements of progressive inhibition of substrate hydrolytic activity by hNE following addition of inhibitor. For these experiments, a known concentration of inhibitor was added to a solution of hNE (0.847 nM) and substrate (25 μM) in 2 ml of reaction buffer in a plastic fluorescence cuvette. The change in fluorescence was recorded continuously following addition of the inhibitor. […] The enzymatic rate at selected times following addition of the inhibitor was determined from the slope of the tangent to the fluorescence time course at that time.
The kinetic constant kₒₙ for EPI-HNE-2 reacting with hNE was determined as follows. EPI-HNE-2 at 1.3 nM was added to buffer containing 0.867 nM hNE (I:E=1.5:1) at time 0.

[8] = target: T1, Human Neutrophil Elastase; test: hNE inhibition assay of EPI-HNE-3 stored in unbuffered water at 4° C. for five months
[9] = target: T1, Human Neutrophil Elastase; test: inhibition of hNE hydrolysis of a fluorogenic substrate, [hNE] = 8.47 × 10^-10 molar
Protocol: as §2, §3

Human Serum Plasmin = Human Serum Plasmin (human, UniProt P00747); test: enzyme inhibition assay; limit on the assumption of less than 10% inhibition at the highest concentration tested
Human Serum Kallikrein = Human Serum Kallikrein (human, UniProt P03952); test: as above
Human Serum Thrombin = Human Serum Thrombin (human, UniProt P00734); test: as above
Human Urine Urokinase = Human Urine Urokinase (human, UniProt P00749); test: as above
Human Plasma Factor Xa = Human Plasma Factor Xa (human, UniProt P00742); test: as above

Row | Binder | fold less total fraction eluted than EpiNE-7 display phage [1] | fraction of input eluted at pH 3.5 [2] | fraction of input in Wash [2] | Normalized fraction of input (relative to recovered MA-EpiNE7) [3] | Ki [4] | koff [5] | Ki [6] | kon [7] | Ki [8] | Kd [9] | Ki (Human Serum Plasmin) | Ki (Human Serum Kallikrein) | Ki (Human Serum Thrombin) | Ki (Human Urine Urokinase) | Ki (Human Plasma Factor Xa)
1 | MA-ITI-D1E7 display phage (designed binder) KEDSCQLGYSAGPCVAMFPRYFYNGTSMACETFQYGGCMGNGNNFVTEKDCLQTCRGA | ~40 fold | 8e-05 fraction of input | 2e-05 fraction of input | 0.027 ratio |  |  |  |  |  |  |  |  |  |  | 
2 | EPI-HNE-3 (designed binder) AACNLPIVRGPCIAFFPRWAFDAVKGKCVLFPYGGCQGNGNKFYSEKECREYCGVP |  |  |  |  | 6 pM | 5e-05 s⁻¹ | ~30 µM | 8e+06 M⁻¹ s⁻¹ | ~0.012 nM | 6.2 pM | > 100 µM | > 100 µM | > 100 µM | > 100 µM | > 100 µM
